Experimental findings from US20220204643A1 (published 2022) are described below.

For one experiment, the target named is T1, phosducin like (human, UniProt Q13371 2-301).
T1 construct: on protein array; also called PDCL
T1 sequence: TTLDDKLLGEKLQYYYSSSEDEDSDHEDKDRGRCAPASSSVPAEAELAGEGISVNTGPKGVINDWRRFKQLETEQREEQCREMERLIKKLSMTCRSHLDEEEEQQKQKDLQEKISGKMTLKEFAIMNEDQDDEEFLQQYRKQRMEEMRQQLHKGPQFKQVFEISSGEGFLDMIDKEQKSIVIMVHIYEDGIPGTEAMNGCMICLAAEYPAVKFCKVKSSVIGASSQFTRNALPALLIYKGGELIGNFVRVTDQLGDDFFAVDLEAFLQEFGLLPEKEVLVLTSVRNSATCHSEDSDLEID
Briefly: protein array.

For experiment [1], the target named is T2, UTP6 small subunit processome component (human, UniProt Q9NYH9 1-597).
T2 construct: on protein array
T2 sequence: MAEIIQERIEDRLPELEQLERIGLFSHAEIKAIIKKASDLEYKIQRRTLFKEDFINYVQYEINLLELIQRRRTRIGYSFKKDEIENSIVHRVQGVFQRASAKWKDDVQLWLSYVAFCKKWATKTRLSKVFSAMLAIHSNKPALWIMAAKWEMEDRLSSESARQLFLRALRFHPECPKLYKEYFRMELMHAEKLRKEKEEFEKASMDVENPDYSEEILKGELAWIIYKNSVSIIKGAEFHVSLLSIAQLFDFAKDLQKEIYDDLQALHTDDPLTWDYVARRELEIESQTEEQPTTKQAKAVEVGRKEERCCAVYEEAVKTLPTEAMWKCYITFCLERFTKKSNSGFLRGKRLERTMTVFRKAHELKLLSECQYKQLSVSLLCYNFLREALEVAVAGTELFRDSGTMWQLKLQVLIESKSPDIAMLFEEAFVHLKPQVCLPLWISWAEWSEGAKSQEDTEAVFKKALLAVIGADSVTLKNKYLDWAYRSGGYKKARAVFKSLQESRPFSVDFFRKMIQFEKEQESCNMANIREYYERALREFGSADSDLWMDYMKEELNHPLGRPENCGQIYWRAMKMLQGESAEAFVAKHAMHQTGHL
Briefly: protein array.

The target of experiment [2] is T3, glyoxylate and hydroxypyruvate reductase (human, UniProt Q9UBQ7 1-328).
T3 construct: on protein array; also called GRHPR
T3 sequence: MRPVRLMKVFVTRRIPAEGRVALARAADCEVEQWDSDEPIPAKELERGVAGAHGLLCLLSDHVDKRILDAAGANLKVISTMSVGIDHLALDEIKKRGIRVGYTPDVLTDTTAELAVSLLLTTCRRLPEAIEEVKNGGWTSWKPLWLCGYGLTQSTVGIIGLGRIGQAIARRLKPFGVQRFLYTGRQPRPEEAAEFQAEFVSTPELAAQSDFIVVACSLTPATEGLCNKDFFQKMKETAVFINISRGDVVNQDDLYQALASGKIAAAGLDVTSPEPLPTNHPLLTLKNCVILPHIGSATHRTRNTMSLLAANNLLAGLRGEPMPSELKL
Briefly: protein array.

The target of experiment [3] is T4, influenza virus NS1A binding protein (human, UniProt Q9Y6Y0 1-642).
T4 construct: on protein array; also called IVNS1ABP
T4 sequence: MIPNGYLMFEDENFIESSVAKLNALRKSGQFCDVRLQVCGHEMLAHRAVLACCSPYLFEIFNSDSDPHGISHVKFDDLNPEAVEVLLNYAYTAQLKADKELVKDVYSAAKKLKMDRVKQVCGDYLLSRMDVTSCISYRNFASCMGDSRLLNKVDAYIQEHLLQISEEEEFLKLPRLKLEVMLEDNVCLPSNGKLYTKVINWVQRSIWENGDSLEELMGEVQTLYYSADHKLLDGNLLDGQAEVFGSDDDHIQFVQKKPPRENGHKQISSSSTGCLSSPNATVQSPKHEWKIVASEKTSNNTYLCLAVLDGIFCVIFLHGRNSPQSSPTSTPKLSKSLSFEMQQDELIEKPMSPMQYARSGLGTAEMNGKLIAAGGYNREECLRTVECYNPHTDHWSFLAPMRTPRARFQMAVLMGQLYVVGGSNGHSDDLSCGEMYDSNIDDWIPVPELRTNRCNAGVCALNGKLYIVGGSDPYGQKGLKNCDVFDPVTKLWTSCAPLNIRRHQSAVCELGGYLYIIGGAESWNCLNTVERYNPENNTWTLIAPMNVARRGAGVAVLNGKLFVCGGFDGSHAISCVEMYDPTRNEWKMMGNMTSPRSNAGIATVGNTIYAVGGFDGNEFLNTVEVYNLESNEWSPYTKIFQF
Description: protein array.

Experiment [4] concerns the target T5, BAF chromatin remodeling complex subunit BCL7C, transcript variant 2 (human, UniProt Q8WUZ0 1-217).
T5 construct: on protein array
Briefly: protein array.

The target of experiment [5] is T6, proliferating cell nuclear antigen, transcript variant 1 (human, UniProt P12004 1-261).
T6 construct: on protein array; also called PCNA
T6 sequence (P12004 whole entry, change not shown): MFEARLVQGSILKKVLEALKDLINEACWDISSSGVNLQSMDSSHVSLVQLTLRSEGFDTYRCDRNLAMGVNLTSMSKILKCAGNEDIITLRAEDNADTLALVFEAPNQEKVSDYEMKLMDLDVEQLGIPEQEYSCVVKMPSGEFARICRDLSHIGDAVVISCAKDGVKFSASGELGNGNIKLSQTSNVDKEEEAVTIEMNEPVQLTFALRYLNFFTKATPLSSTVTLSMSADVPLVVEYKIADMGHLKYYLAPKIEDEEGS
Briefly: protein array.

For a further experiment, the target named is T7, G antigen 2A (human, UniProt Q6NT46 1-116).
T7 construct: on protein array; also called GAGE2A
T7 sequence: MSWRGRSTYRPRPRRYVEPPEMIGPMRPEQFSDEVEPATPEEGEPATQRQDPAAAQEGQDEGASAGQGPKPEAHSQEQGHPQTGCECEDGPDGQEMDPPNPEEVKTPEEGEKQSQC
Briefly: protein array.

The target in experiment [6] is T8, acyl-CoA binding domain containing 6 (human, UniProt Q9BR61 1-282).
T8 construct: on protein array; also called ACBD6
T8 sequence: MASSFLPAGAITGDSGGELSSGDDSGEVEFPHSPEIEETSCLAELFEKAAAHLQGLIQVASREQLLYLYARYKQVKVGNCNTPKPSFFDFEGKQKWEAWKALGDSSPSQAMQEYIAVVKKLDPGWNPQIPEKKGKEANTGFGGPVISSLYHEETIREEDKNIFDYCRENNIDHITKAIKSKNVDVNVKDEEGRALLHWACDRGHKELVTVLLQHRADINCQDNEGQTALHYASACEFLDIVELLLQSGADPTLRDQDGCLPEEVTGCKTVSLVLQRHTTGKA
Briefly: protein array.

The target in experiment [7] is T9, zinc finger DHHC-type containing 1, transcript variant 1 (human, UniProt Q8WTX9 1-485).
T9 construct: HuProt array protein, full-length recombinant from yeast; also called ZDHHC1
T9 sequence: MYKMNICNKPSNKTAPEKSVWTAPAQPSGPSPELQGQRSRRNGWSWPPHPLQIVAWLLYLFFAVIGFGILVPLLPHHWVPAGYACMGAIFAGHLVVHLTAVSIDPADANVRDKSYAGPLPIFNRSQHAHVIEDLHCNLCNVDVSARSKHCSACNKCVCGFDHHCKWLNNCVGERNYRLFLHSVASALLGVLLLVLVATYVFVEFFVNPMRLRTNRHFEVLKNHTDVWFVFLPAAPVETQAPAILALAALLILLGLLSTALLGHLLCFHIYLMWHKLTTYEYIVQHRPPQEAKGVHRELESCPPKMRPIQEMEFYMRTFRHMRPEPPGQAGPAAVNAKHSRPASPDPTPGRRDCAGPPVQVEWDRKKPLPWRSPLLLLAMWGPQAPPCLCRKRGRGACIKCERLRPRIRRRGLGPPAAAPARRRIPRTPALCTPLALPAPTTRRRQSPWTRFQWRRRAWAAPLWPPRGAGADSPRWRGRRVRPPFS

For the next experiment, the target named is T10, Dexd-box helicase 52 (human, UniProt Q9Y2R4 1-599).
T10 construct: on protein array; also called DDX52
T10 sequence: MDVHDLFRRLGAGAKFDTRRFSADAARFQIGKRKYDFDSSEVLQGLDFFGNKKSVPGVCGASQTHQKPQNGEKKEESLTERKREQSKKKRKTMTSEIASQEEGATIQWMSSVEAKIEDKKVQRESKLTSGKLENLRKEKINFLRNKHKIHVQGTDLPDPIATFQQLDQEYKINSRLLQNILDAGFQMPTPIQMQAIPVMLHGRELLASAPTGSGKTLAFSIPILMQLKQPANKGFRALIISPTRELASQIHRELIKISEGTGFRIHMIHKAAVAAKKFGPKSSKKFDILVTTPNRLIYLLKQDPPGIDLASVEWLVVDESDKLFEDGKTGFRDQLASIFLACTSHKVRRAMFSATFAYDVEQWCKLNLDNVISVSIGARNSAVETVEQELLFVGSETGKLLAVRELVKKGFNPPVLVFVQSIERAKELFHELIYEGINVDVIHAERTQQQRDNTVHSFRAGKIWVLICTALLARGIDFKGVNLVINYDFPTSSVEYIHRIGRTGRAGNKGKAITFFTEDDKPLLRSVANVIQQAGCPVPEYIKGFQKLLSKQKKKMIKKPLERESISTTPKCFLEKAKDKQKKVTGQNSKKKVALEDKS
Briefly: protein array.

The target in experiment [8] is T11, G protein-coupled receptor 4 (human, UniProt P46093 1-362).
T11 construct: on protein array; also called GPR4
T11 sequence (P46093 whole entry): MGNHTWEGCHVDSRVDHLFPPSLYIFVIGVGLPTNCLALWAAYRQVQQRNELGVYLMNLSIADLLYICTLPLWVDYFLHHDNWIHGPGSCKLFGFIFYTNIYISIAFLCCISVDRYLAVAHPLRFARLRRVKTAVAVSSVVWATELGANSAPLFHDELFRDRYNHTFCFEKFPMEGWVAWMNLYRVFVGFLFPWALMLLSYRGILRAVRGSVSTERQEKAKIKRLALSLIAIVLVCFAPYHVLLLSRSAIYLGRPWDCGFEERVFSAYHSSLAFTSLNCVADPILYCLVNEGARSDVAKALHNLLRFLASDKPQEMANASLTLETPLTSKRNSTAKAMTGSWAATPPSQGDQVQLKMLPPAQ
Description: protein array.

B1: TTES1007 (antibody, V domains shown)
VH: QITLKESGPTLVKPTQTLTLTCTFSGFSLTTTGVGVGWIRQPPGKALEWLALIYWDDDKRYSPSLKSRLIITKDTSKNQVVLTMTNMDPVDTATYYCAHRFGRGVSYYYYGMDVWGQGTTVTVSS
VL: not shown
notes: VH/VL tied via antigen in summary, not by name in this stretch
For the molecule B1, the binding result in the experiment with phosducin like is reported as “binds”.

B2: TUCE1005 (antibody, V domains shown)
VH: QVQLQESGPGLVKPSETLSLTCTVSGGSISSYYWSWIRQPAGKGLEWIGRIYTSGSTNYNPSLKSRVTMSVDTSKNQFSLKMSSVTAADTAVYYCARGELLFDHWGQGTLVTVSS
VL: not shown
notes: as for B1
Take B2: the binding result in [1] is listed as “binds”.

B3: TTES1004 (antibody, V domains shown)
VH: EVQLVESGGGLVQPGGSLRLSCVASGFTFSSYSMNWVRQAPGKGLKWVSYISSSRSTIYNADSVKGRFTISRDNAKKSLYLQMNSLRAEDTAVYYCARVSVAAPTCLDYWGQGTLVTVSS
VL: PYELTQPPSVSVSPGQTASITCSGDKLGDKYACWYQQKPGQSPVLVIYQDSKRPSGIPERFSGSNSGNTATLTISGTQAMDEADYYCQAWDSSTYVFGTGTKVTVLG
notes: as for B1
Take B3: the binding result in experiment [2] is listed as “binds”.

B4: TTHY1003 (antibody, V domains shown)
VH: QVQLVQSGAEMKKPGTSVKVSCRTSGYIFTGSFMHWVRQAPAQGLEWMGWINPKTGATYYTEKFKGRVTLTRDTSINTAYMEMTSLRSDDTAVYYCARGFCDLPACYPVPQYNWFDPWGQGTLVTVSS
VL: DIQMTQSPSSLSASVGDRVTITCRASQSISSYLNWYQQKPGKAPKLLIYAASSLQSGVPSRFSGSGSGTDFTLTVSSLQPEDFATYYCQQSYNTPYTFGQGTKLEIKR
notes: as for B1
With B4, the binding result in experiment [3] and in [4] was “binds” each time.

B5: TTHY1002 (antibody, V domains shown)
VH: EVQVVESGGGLGQPGGSLRLSCAASGFTFSSYSMNWVRQAPGKGLEWVSYISSSSSTKYYADSVKGRFTISRDNAKKSLYLQMNSLRDEDTAVYYCASPVRPWGQGTLVTVSS
VL: EIVMTQSPATLSVSPGERATLSCRASQSVSSNLAWYQQKPGQAPRLLIYGASTRATGIPARFSGSGSGTEFTLTISSLQSEDFAIYYCQQYNSWPAFGGGTKVEIK
notes: as for B1
With B5, the binding result in experiment [5] is “binds”.

B6: TTES1012 (antibody, V domains shown)
VH: EVQLVESGGGLVQPGGSLRLSCAASGFTFSSYWMTWVRQAPGKGLEWVANIKQDGSEKYYVDSVKGRFTISRDNSKNSLYLQMNSLRAEDTAVYYCARAGYDLFGWFDPWGQGTLVTVSS
VL: SYELTQPPSVSVSPGQTARITCSGDALPKQYAYWYQQKPGQAPVLVIYKDSERPSGIPERFSGSSSGTTVTLTISGVQAEDEADYYCQSADSSGTYVFGTGTKVTVLG
notes: as for B1
Turning to B6, in the experiment with G antigen 2A, the binding result is given as “binds”.

B7: TTES1006 (antibody, V domains shown)
VH: EVQLVESGGGLVQPGGSLRLSCAASGFTFSKFWMHWVRQAPGKGLVWLSRINTDGTVTTYADSVKGRFTISRDNAKSTLYLQMNSLRVEDTAVYYCAGGGSQVDFWGQGTLVTVSS
VL: PYELTQPPSVSVSPGQTASIACSGDNLGNKYAWWYRQKPGQSPVLVMYKDNKRPSGIPERFSGSNSGNTATLTISGTQAMDEADYYCQTWDSSTVIFGGGTKLTVQ
notes: as for B1
As for B7, the binding result in experiment [6] is recorded as “binds”.

B8: TBLA1003 (antibody, V domains shown)
VH: EVQLVESGGGLIQPGRSLRLSCAASGFTFEDYAMHWVRQAPGKGLEWVSGISWNSGNIGYADSVKGRFTISRDNAKNSLYLQMHSLRPEDTALYYCAKDINFFGLGTGGGAMDVWGQGTTVTVSS
VL: DIQMTQSPSYVSASVGDRVTITCRASQGIDVWLAWYQQKPGKAPKLLIYTASSLQSGVPSRFSGSGGGTEFTLTISSLQPEDFATYYCQQSNSFPGTFGPGTKVDVKR
notes: detected with anti-human IgG Fc
Consider B8, for which the binding result in experiment [7] is recorded as “binds”.

B9: TTES1008 (antibody, V domains shown)
VH: QVQLVESGGGVVQPGRSLRLSCAASGFIFSSYGMHWVRQAPGKGLEWVAVISYDGSNKYYADSVKGRFTISRDKSKNTLHLQMNSLRAEDTAVYYCAKDSGSNDDMDVWGKGTTVTVSS
VL: QSVLTQPPSVSAAPGQKVTISCSGSSSNIGNNYVSWYQQLPGTAPKLLIYDNNKRPSGIPDRFSGSKSGTSATLGITGLQTGDEADYYCGTWDSSLSAGVFGTGTKVTVLG
notes: as for B1
For B9, the binding result (with Dexd-box helicase 52; in experiment [8]) was “binds” each time.
